According to the Human Domainome abundance scans (Beltran et al. 2025):

B1: TGF-beta-activated kinase 1 and MAP3K7-binding protein 3, residues 12 to 50; numbered along this chain, Q8N5C8 (parent)
chain: VLHDLRQRFPEIPEGVVSQCMLQNNNNLEACCRALSQES

Variants of: B1
Experiment: abundance fitness (aPCA) (normalised: wild type 0, dead -1); higher = more abundant; growth selection in yeast, the domain comes from the species named
Conditions: Homo sapiens

Abundance fitness, by site and new letter:
D4: S -0.118 | T 0.02 | F 0.164 | A 0.013 | Y -0.054 | G -0.676 | Q 0.167 | L 0.116 | K 0.109 | V 0.127 | R -0.112 | E 0.248 | P -0.838 | N -0.075 | W 0.017 | M -0.039 | C -0.053
R6: E -0.212 | K 0.11 | T -0.375 | V -0.211 | M 0.142 | C 0.107 | G -0.486 | Q -0.19 | S -0.319 | P -0.91 | A -0.279 | L 0.056 | H -0.036 | W -0.809
L5: W -0.885 | A -0.905 | R -0.722 | I 0.286 | S -0.914 | K -0.532 | D -0.191 | M -0.493 | Q -0.589 | V -0.896 | H -0.4 | E -0.362
P10: A -0.943 | G -0.78 | E -0.758 | S -0.595 | K -1.07 | L -1.16 | V -0.921 | Q -0.956 | W -0.962 | M -0.806 | R -0.96 | T -0.906 | D -0.672
E11: D 0.111 | W -0.126 | Q -0.166 | T -0.214 | A -0.511 | L -0.416 | N -0.115 | R -0.444 | M -0.213 | V -0.726 | F -0.479 | Y -0.324 | K -0.535 | P -0.764 | G -0.13 | S -0.189 | H -0.11
V1: E 0.043 | R -0.291 | Q 0.235 | S -0.048 | N 0.252 | L 0.311 | F -0.228 | W -0.361 | G -0.193 | D 0.022 | M 0.19 | A -0.38
H3: N -0.14 | I -0.096 | D -0.066 | V -0.331 | G -0.078 | C -0.191 | S 0.066 | F -0.342 | Q 0.266 | T -0.019 | K 0.09 | Y -0.391 | P -0.483 | R 0.088 | M -0.023 | E 0.201
I12: K -0.577 | D -1.04 | G -0.981 | A -0.533 | L -0.094 | C -0.467 | E -0.619 | H -0.209
L2: R -0.464 | E -0.588 | V -0.531 | I -0.049 | Q -0.276 | G -0.583 | S -0.221 | H 0.077 | T -0.194 | W -0.134 | P -0.246 | F 0.211 | N -0.058 | A -0.187
Q7: M 0.064 | K 0.003 | V -0.135 | G -0.413 | S 0.026 | W -1.08 | I -0.077 | C -0.658 | T -0.089 | P -1.02 | N -0.225 | D -0.083 | F -0.634 | R 0.103 | E 0.072
F9: W -0.964 | T -0.798 | S -0.597 | R -0.751 | C -0.65 | I -0.784 | M -0.428 | V -0.865 | N -0.559 | E -0.682 | K -0.544 | D -0.616 | Y -0.04 | G -0.818 | L -0.935
R8: W -0.975 | P -1.08 | I -0.403 | K 0.054 | T -0.877 | G -0.944 | D -0.722 | M 0.071 | L -0.168 | H -0.907 | E -0.469 | Q -0.73 | A -0.544 | C -0.987
